Reference: patent publication US20060122105A1, “Method of improing the growth performance of an animal” (priority 2001, published 2006)

Key:
Type in all cases: in vivo
[1] = Growth performance of pigs treated with IL-1ra or saline at zero, reduced and normal antibiotic medication (Example 2); conditions: for total group weight at the end of the weaner phase: FIG. 10
Method: Recombinant porcine IL-1ra was expressed in E. coli and purified using a polyhis tag system. IL-1ra was tested for biological activity in a bioassay prior to the start of the experiment.
The experiment was undertaken in a commercial environment where the pigs were weaned at 28 days of age. All injections were 1 ml. There were 16 pigs per treatment, 8 males and 8 females per treatment. The mean weight of treatment groups were similar at the start of the experiment.
A. Saline injection, 1 ml IM neck muscle.
B. 100 ug IL-1ra injection, 1 ml IM neck muscle. Injections were administered twice weekly during the weaner stage, and weekly throughout the grower and finisher stages.
Pigs were weaned and weighed at the commencement of the experiment (D0, W0). Weights were recorded weekly throughout the weaner phase (W0-W6), during the grower phase (W9), at the end of the grower phase (W13), during the finisher phase (W 16) and at the end of the finisher phase prior to slaughter at W19. Blood samples were collected at the start of the experiment and at the end of the weaner phase, grower phase and finisher phase. Haematology and immunological analyses were performed. At slaughter, carcass characteristics including P2 backfat measurements and dressed carcass weight were noted.

haemorrhagic E. coli = test: Haemorrhagic E. coli challenge of weaner pigs, prophylactic treatment (Example 3); conditions: for reduction of E. coli culture score at post-mortem compared to saline: FIG. 19
Method: Male weaner pigs, with a mean weight of 5.4 kg were allocated to groups of 8, with the mean weight being equalised between groups. Pigs were housed in group pens containing a replicate from each treatment group. Pigs were provided with pelleted feed and water ad libitum.
Pigs were treated with recombinant saline, IL-1ra or the antibiotic, Apralan, and challenged with E. coli according to the schedule outlined in Table 3. Saline, or 200 μg of IL-1ra were delivered intramuscularly in 1 ml doses. Apralan was delivered orally according to manufacturer's instructions at a dose of 12 mg/kg. E. coli challenges were delivered orally in an 8 ml dose containing 10^8 cfu/ml. Blood was sampled from pigs by venipuncture at −2 days, day 0, and +6 days from initial challenge with E. coli as outlined in Table 3. Blood was assayed for immunological parameters including white blood cell number, differential cell counts, lymphocyte subset enumeration, IgG levels and cytokine production. Pigs were weighed at day −2 and at the end of the trial on day 6.
Faecal samples were taken from each pig daily for 5 days from day 2 to day 6 after challenge; these samples were cultured on sheep blood agar to quantify E. coli load. Growth on sheep blood agar was scored from 0 to 5 (where 0 was no growth, 1 signified growth in the primary inoculum, 2 signified growth in the first streak, 3 signified growth in the 2nd streak, 4 signified growth in the 3rd streak, and 5 signified growth of E. coli in the final streak). The condition of faeces was noted as normal, wet or diarrhoea, as an indication of clinical signs.
At the conclusion of the experiment on day 7, pigs were euthanased and swabs were taken from different areas in the gastro-intestinal tract, including the small intestine (25%, 50% and 75% along the length of the small intestine), the caecum and colon, and from the faeces in situ. These post-mortem swabs were cultured on sheep blood agar to quantify E. coli load as described above.

[2] = system: Brachyspira (Serpulina) hyodysenteriae; test: Swine dysentery challenge of weaner pigs, prophylactic treatment (Example 4); conditions: for reduction in spirochaete culture scores at post-mortem compared to saline: FIG. 25
Method: Male pigs with a mean starting weight of 6.5 kg, were allocated to treatment groups consisting of eight pigs. Pigs were housed in group pens, with each pen containing a replicate from each of the treatment groups. One group of 8 pigs was housed in a separate room and left uninfected to act as untreated controls. Pigs were provided with pelleted feed and water ad libitum.
Prior to swine dysentery challenge, pigs were treated with 200 μg recombinant IL-1ra or 1 ml saline via intramuscular injection. Lincocin was delivered as a 2 ml intramuscular injection according to the manufacturer's instructions. Cytokines, antibiotics and challenges were performed at intervals described in the experimental protocol outlined in Table 5. Pigs were infected with Brachyspira hyodysenteriae at day 0, day 1 and day 2, given as an oral bolus of 120 ml of spirochaete culture in log phase of growth, containing approximately 10^8 cells.
Faecal swabs and blood samples were taken from each pig at intervals described in Table 5. Faecal swabs were cultured for the presence of spirochaetes. Blood samples were assayed for immunological parameters as described in Example 3 above. Pigs were weighed at weekly intervals throughout the experiment, which was terminated by euthanasia on days 19 and 20 after the initial challenge. At post-mortem, swabs from areas of the hindgut were cultured for the presence of spirochaetes, and the gross pathological condition of the gastro-intestinal tissue noted.

[3] = system: Actinobacillus pleuropneumoniae (App); test: App challenge of pigs, prophylactic recombinant IL-1ra, plasmid IL-1ra or flunix (Example 5); conditions: day 13 after challenge compared with pre-challenge levels; FIG. 35

B1: IL-1ra: Recombinant porcine IL-1ra expressed in E. coli and purified using a polyhis tag system (protein, UniProt Q29056 26-177, looked up)
Interleukin-1 receptor …: HPLGKRPCRMQAFRIWDVNQKTFYLRNNQLVAGYLQGPNTKLEEKIDVVPVEPHFVFLGIHGGKLCLSCVKSGDEMKLQLDAVNITDLRKNSEQDKRFTFIRSDSGPTTSFESAACPGWFLCTALEADQPVGLTNTPKAAVKVTKFYFQQDQ
modifications: polyhistidine tag
notes: Recombinant porcine IL-1ra expressed in E. coli and purified using a polyhis tag system
weight at the end of the weaner phase ([1]; 100 ug IL-1ra, all 3 levels of medication, FIG. 8): weighed more than their saline treated counterparts | P2 backfat levels at slaughter ([1]; IL-1ra in absence of antibiotics, FIG. 13): comparable to those of pigs treated with saline and provided full antibiotic medication | finishing weight, more than saline treated pigs ([1]; absence of antibiotic medication, FIG. 12): 16.7% | number of pigs experiencing weight loss or mortality over the weaner period ([1]; absence of antibiotics, FIG. 9): 2 out of 16 pigs | total group weight at the end of the weaner phase ([1]; full medication): 451 kg | total group weight at the end of the weaner phase ([1]; no medication): 369 kg | increase in productivity (group weight vs saline) ([1]; normal antibiotic administration): 11.1% | increase in productivity (group weight vs saline) ([1]; reduced antibiotic administration): 20.4% | total group weight at the end of the weaner phase ([1]; reduced medication): 390 kg | weight at the end of the grower phase ([1]; regardless of medication level, FIG. 11): heavier than all the saline treatment | deleterious effects of continuous administration ([1]; twice weekly in weaner stage, weekly in grower and finisher stages): did not have any deleterious effects | increase in productivity (group weight vs saline) ([1]; zero antibiotic administration): 26.4% | decrease in faecal shedding, faecal scores tallied over the entire challenge period, compared to saline treated controls (haemorrhagic E. coli; 5 days after E. coli challenge, FIG. 15): 37% | recorded cases of wet faeces and diarrhoea (clinical signs) (haemorrhagic E. coli; 5 days after E. coli challenge, FIG. 16): fewer recorded cases of wet faeces and diarrhoea | group mean total E. coli culture score, all gut areas at post-mortem (haemorrhagic E. coli; FIG. 20): less than 10 out of a possible 30 | reduction of E. coli culture score at post-mortem compared to saline (haemorrhagic E. coli; anterior part of the small intestine): 71% | reduction of E. coli culture score at post-mortem compared to saline (haemorrhagic E. coli; caecum): 39% | reduction of E. coli culture score at post-mortem compared to saline (haemorrhagic E. coli; colon): 44% | reduction in clinical signs compared to saline controls (haemorrhagic E. coli; faecal condition, FIG. 17): 64% | days on which bacterial shedding was significantly less than saline treated controls (haemorrhagic E. coli; faecal cultures): 3/5 | reduction of E. coli culture score at post-mortem compared to saline (haemorrhagic E. coli; faeces in situ): 23% | reduction of E. coli culture score at post-mortem compared to saline (haemorrhagic E. coli; mid small intestine): 51% | reduction in E. coli in the hindgut area (caecum and colon) compared to saline controls (haemorrhagic E. coli; post-mortem, FIG. 23): 42% | reduction of bacterial load in the small intestine (foregut) compared with saline controls (haemorrhagic E. coli; post-mortem, FIG. 23): 55% | reduction of E. coli culture score at post-mortem compared to saline (haemorrhagic E. coli; posterior small intestine): 47% | reduction in the amount of E. coli in the gastro-intestinal tract compared to saline controls (haemorrhagic E. coli; total culture scores at post-mortem, FIG. 21): 45% | period of reduced bacterial shedding in faeces after challenge (haemorrhagic E. coli; vs saline, FIG. 14): day 2 through to day 4 | Change compared to saline treated controls: Change in clinical signs (haemorrhagic E. coli; ↓ (decrease)): 63.6% | Change compared to saline treated controls: Change on faecal bacterial load (haemorrhagic E. coli; ↓ (decrease)): 36.5% | Change compared to saline treated controls: E. coli at post-mortem (haemorrhagic E. coli; ↓ (decrease)): 44.6% | Change compared to saline treated controls: E. coli in foregut (haemorrhagic E. coli; ↓ (decrease)): 55.4% | Change compared to saline treated controls: E. coli in hindgut (haemorrhagic E. coli; ↓ (decrease)): 41.7% | Change compared to saline treated controls: Presence of bacterial shedding in faeces (haemorrhagic E. coli; ↓ (decrease)): 3 days | reduction in spirochaete culture scores at post-mortem compared to saline ([2]; anterior colon): 15.8% | reduction in spirochaete culture scores at post-mortem compared to saline ([2]; faecal spirochaetes): 42.1% | reduction in spirochaete culture scores at post-mortem compared to saline ([2]; posterior colon): 47.1% | net reduction in spirochaetes throughout the GIT ([2]; vs saline): 27% | faecal condition at post-mortem (clinical signs) ([2]; vs saline treated controls, FIG. 26): fewer signs of dysentery-affected faeces | production of the pro-inflammatory cytokines TNF, IL-8 and IL-1 (mRNA in peripheral blood) ([2]; vs saline treated controls, FIGS. 27, 28 and 29): reduce the production | levels of TNFα protein in the serum [3]: reduced levels of TNFα
